Laboratory results published in patent US20260217795A1 (NANJING GENSCRIPT BIOTECH, published 2026).

Key:
Test in all cases: indirect ELISA, VLP coated at 1 ug/mL, antibody in 3-fold dilutions from 1 ug/mL
[1] = biological target: T1, recombinant rh.1-type AAV virus-like particles (AAVrh.1 VLP) (adeno-associated virus rh.1 (isolated …))
T1 construct: The immunogen; VLP self-assembled from VP1, VP2 and VP3 expressed in 293T cells; coated on ELISA plates; also called rh.1-serotype AAV
T1 chain 1: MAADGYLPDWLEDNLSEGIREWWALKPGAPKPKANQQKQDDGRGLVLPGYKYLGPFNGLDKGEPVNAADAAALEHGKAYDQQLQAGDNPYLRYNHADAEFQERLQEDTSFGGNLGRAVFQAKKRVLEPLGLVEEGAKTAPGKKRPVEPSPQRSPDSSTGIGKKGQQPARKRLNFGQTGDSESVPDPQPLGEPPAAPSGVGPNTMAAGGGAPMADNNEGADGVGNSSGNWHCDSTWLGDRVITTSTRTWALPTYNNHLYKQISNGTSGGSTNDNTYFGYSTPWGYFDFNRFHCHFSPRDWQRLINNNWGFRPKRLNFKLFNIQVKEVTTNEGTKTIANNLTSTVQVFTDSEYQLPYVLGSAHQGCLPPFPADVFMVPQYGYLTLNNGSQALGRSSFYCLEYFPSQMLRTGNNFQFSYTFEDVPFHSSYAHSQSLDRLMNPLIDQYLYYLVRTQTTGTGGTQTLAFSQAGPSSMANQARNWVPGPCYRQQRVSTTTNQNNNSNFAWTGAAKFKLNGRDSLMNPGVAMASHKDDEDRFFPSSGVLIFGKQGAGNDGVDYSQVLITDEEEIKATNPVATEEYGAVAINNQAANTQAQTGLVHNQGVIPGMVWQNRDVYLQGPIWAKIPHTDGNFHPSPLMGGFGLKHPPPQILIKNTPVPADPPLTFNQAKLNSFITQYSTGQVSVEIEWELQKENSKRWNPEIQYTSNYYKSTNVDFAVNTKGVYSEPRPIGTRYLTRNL
T1 chain 2: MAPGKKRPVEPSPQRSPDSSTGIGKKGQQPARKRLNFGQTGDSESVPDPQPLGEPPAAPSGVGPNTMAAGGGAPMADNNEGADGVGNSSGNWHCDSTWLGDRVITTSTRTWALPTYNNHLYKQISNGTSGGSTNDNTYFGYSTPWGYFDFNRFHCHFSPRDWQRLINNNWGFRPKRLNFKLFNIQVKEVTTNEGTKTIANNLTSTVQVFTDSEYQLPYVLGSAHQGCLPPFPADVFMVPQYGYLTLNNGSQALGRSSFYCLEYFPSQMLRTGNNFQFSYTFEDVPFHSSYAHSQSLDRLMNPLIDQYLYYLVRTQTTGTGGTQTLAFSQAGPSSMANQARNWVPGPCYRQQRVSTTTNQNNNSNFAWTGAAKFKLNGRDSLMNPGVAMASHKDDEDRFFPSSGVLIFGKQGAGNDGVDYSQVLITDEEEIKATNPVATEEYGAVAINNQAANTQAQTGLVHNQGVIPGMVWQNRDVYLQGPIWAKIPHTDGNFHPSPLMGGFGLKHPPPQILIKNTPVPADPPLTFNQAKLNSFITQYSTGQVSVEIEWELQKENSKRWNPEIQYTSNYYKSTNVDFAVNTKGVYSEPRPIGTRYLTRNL
T1 chain 3: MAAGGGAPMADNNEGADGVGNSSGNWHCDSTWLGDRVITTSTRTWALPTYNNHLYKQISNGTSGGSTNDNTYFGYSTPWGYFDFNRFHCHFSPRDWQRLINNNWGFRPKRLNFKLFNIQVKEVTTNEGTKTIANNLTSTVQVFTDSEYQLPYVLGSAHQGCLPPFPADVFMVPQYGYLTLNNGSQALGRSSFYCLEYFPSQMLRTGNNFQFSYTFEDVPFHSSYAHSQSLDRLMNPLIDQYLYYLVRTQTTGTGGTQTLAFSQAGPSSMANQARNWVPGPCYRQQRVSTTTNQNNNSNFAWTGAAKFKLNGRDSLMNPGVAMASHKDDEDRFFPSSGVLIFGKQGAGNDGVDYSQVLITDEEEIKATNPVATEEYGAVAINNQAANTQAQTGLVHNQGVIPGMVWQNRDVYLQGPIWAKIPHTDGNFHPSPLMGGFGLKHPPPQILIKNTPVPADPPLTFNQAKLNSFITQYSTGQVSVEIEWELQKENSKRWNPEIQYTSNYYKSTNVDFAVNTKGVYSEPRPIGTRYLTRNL

[2] = biological target: T2, AAV2 virus-like particle (VLP) (adeno-associated virus 2, UniProt P03135 1-735; P03135 1-598; P03135 1-533)
T2 construct: VLP self-assembled from VP1, VP2 and VP3 expressed in 293T cells; coated on ELISA plates; also called VLP of AAV2

[3] = biological target: T3, AAV6 virus-like particle (VLP) (adeno-associated virus 6)
T3 construct: VLP self-assembled from VP1, VP2 and VP3 expressed in 293T cells; coated on ELISA plates; also called VLP of AAV6

[4] = biological target: T4, AAV1 virus-like particle (VLP) (adeno-associated virus 1)
T4 construct: VLP self-assembled from VP1, VP2 and VP3 expressed in 293T cells; coated on ELISA plates; also called VLP of AAV1

[5] = biological target: T5, AAVDJ virus-like particle (VLP) (adeno-associated virus DJ)
T5 construct: VLP self-assembled from VP1, VP2 and VP3 expressed in 293T cells; coated on ELISA plates; also called VLP of AAVDJ

[6] = biological target: T6, AAV5 virus-like particle (VLP) (adeno-associated virus 5)
T6 construct: VLP self-assembled from VP1, VP2 and VP3 expressed in 293T cells; coated on ELISA plates; also called VLP of AAV5

[7] = biological target: T7, AAV8 virus-like particle (VLP) (adeno-associated virus 8)
T7 construct: VLP self-assembled from VP1, VP2 and VP3 expressed in 293T cells; coated on ELISA plates; also called VLP of AAV8
T7 VP1: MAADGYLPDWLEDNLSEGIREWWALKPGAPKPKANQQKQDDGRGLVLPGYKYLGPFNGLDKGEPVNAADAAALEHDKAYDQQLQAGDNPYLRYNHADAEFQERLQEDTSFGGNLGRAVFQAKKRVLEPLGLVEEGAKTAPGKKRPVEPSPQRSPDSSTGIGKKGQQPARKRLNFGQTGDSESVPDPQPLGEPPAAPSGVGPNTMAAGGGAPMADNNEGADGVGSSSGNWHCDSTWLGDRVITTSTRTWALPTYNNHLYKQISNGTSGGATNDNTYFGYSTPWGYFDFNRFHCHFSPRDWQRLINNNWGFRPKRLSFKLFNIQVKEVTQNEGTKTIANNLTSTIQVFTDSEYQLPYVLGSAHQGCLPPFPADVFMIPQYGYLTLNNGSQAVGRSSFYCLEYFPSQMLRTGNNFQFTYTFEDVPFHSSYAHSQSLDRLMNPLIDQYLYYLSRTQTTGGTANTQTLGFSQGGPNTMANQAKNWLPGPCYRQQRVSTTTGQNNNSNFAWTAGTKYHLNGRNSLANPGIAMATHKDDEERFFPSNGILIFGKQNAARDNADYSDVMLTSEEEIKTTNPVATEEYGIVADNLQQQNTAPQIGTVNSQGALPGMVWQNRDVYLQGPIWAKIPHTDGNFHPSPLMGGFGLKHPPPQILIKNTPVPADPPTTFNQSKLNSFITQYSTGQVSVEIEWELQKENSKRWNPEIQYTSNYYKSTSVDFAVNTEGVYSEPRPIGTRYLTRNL

[8] = biological target: T8, AAV9 virus-like particle (VLP) (adeno-associated virus 9)
T8 construct: VLP self-assembled from VP1, VP2 and VP3 expressed in 293T cells; coated on ELISA plates; also called VLP of AAV9

B1: 24F7-1 monoclonal antibody (antibody, V domains shown)
VH: QSLRESEGGLFKPADTLTLTCTVSGFSITAYNVGWVRQAPGKGLEWIGVIDISGATFYATWAKSRSTITRDTSLNTVTLKMTSLTAADTATYFCTRDPAFIWGPGTLVTVSS
VL: DVVMTQTPASVEAAVGGTVTIKCQASQSVSSYLAWYQQKPGQPPKLLIYRASTLASGVPSRFKGSGSGTEFTLTISDLECADAATYYCQSYVYSNVLTYFNAFGGGTGVVVK
notes: Rabbit monoclonal antibody, made recombinantly in ExpiCHO-S cells, purified on protein A as IgG and detected with anti-rabbit IgG (Fc-specific); also called clone 24F7-1
EC50 [1]: 0.93 ng/mL | EC50 [2]: 0.51 ng/mL | EC50 [3]: 0.61 ng/mL | EC50 [4]: 0.79 ng/mL | EC50 [5]: 0.5 ng/mL

B2: 5G4-1 monoclonal antibody (antibody, V domains shown)
VH: QSVKESEGGLFKPADTLSLTCTVSGFSLNNNDMSWVRQAPGNGLEYIGVMSSGGRLYAATWAKSRFTITRNTNLGTVTLKLTSLTAADTATYFCARGSPSSNRGIDIWGPGTLVTVSS
VL: LTQTPSSVSAPVGGTVSINCQSDKSVYADNYLSWYQQTPGQPPKLLIYKASTLASGIPSRFKGSGSGTQFTLAISDVQCDDAATYYCAGGYSGNSDNGFGGGTEVVVR
notes: Rabbit monoclonal antibody, made recombinantly in ExpiCHO-S cells, purified on protein A as IgG and detected with anti-rabbit IgG (Fc-specific); also called clone 5G4-1
EC50 [1]: 0.51 ng/mL | EC50 [2]: 0.94 ng/mL | EC50 [6]: 1.16 ng/mL | EC50 [7]: 1 ng/mL | EC50 [3]: 0.64 ng/mL | EC50 [4]: 1.03 ng/mL | EC50 [8]: 0.64 ng/mL | EC50 [5]: 1.12 ng/mL
